T1: mouse OX40 expressed on ExpiCHO-S cells (mouse, UniProt P47741 20-272)
T1 construct: full-length entry; also called OX40mm; wild-type mouse OX40
T1 sequence: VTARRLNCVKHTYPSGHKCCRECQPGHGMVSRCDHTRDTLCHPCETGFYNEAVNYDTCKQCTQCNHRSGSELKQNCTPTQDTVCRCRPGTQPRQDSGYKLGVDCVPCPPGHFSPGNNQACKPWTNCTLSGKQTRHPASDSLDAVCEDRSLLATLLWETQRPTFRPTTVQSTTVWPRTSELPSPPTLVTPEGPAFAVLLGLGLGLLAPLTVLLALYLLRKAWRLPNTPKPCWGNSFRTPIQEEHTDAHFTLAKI

T2: human OX40 with mouse CRD4 (human with mouse CRD4, UniProt P43489 29-277)
T2 construct: on ExpiCHO-S cells; also called OX40-CRD4mm; Shuffle 4
T2 chain: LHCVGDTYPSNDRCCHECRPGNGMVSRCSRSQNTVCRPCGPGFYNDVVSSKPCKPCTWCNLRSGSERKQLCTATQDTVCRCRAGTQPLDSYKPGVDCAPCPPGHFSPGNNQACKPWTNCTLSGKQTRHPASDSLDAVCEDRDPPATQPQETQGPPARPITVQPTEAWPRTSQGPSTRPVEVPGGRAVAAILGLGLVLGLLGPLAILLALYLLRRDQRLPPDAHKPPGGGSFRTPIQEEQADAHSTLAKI

T3: cynomolgus monkey OX40 expressed on HEK293F cells (cynomolgus monkey (Macaca fascicularis), UniProt P43489 29-277 (human entry))
T3 construct: full-length entry
T3 chain: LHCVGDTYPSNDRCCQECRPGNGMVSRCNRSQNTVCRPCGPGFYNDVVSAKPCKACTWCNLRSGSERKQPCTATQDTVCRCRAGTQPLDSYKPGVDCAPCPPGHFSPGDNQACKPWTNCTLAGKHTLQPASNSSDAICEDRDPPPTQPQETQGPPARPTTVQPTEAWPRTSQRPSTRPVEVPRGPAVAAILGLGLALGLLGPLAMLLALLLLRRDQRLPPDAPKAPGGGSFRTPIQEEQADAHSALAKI

T4: human OX40 expressed on cells (human, UniProt P43489 29-277)
T4 construct: also called CD134; TNFRSF4
T4 sequence: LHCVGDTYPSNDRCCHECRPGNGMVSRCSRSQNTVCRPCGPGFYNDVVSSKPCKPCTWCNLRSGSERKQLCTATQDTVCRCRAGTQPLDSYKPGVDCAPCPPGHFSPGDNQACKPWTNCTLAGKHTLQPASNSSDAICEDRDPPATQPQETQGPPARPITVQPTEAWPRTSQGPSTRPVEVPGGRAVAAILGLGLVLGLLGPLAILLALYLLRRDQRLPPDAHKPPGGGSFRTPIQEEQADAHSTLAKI

T5: human OX40 with mouse CRD2 (human with mouse CRD2, UniProt P43489 29-277)
T5 construct: on ExpiCHO-S cells; also called OX40-CRD2mm; Shuffle 2
T5 chain: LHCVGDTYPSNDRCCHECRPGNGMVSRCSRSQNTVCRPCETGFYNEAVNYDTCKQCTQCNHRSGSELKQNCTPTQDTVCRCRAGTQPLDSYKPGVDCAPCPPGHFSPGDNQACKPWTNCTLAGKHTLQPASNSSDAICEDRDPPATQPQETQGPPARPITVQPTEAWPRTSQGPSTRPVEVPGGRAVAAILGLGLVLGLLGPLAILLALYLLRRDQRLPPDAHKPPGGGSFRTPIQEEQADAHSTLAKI

T6: human OX40 with mouse CRD1 (human with mouse CRD1, UniProt P43489 29-277)
T6 construct: on ExpiCHO-S cells; also called OX40-CRD1mm; Shuffle 1
T6 chain: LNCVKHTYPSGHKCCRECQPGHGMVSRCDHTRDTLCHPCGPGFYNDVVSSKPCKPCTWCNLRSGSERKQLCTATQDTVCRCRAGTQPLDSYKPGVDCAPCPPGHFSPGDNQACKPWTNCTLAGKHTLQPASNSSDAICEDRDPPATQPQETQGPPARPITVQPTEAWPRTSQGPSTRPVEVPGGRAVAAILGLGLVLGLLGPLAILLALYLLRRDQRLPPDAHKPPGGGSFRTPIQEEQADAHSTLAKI

T7: human OX40 with mouse CRD3 (human with mouse CRD3, UniProt P43489 29-277)
T7 construct: on ExpiCHO-S cells; also called OX40-CRD3mm; Shuffle 3
T7 chain: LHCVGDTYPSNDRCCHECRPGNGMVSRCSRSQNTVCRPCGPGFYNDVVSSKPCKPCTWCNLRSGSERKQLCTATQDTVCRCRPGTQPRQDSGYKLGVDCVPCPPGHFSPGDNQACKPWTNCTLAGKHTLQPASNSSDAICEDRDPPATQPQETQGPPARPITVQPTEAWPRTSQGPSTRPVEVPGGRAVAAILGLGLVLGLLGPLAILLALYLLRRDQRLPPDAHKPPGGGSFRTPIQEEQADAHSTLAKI


What was measured:
[1] = molecular target: T1, mouse OX40 expressed on ExpiCHO-S cells; assay: flow cytometry, transfected ExpiCHO-S cells, gMFI (PE)
[2] = molecular target: T2, human OX40 with mouse CRD4; assay: as above
Method: (§1) The four shuffle constructs, as well as wild-type human and mouse OX40 were transiently expressed on ExpiCHO-S cells using the ExpiFectamine™ CHO Transfection Kit (ThermoFisher, cat. no. A29131), according to the manufacturer's protocol. […] Next, cells were washed twice in FACS buffer 1, were resuspended in a 30 μL solution of viability marker ToPro-3 (Invitrogen, cat. no. T3605, diluted 1:10,000) in FACS buffer 1 supplemented with 2 mM EDTA, and were analyzed on an iQue Screener Plus (Intellicyt Corporation, USA). Data were analyzed using FlowJo software and visualized using GraphPad Prism.

[3] = molecular target: T3, cynomolgus monkey OX40 expressed on …; assay: flow cytometry, OX40-transfected HEK293F cells, gMFI (PE)
Method: (§2) Transfected cells were seeded in 96-well plates (30,000 cells/well; ThermoFisher, cat. no. 163320) for sequential incubations, with washing steps in between using fluorescence-activated cell sorting (FACS) buffer 1 (phosphate buffered saline [PBS; Lonza, cat. no. BE17-517Q] supplemented with 0.1% bovine serum albumin [BSA; Roche, cat. no. 10735086001] and 0.02% sodium azide [NaN₃; Bio-World, cat. no. 41920044-3]) supplemented with 2 mM ethylenediaminetetraacetic acid (EDTA; Sigma-Aldrich, cat. no. 03690). […] Cells were then washed using EDTA-supplemented FACS buffer 1, resuspended in a 30 μL solution of viability marker ToPro-3 (Invitrogen, cat. no. T3605, diluted 1:10,000) in EDTA-supplemented FACS buffer 1, and subsequently analyzed on an iQue® 3 flow cytometer (Satorius). Data were analyzed using FlowJo software and were visualized using GraphPad Prism.

[4] = molecular target: T4, human OX40 expressed on cells; assay: as above
Method: as §2

[5] = molecular target: T5, human OX40 with mouse CRD2; assay: flow cytometry, transfected ExpiCHO-S cells, gMFI (PE)
[6] = molecular target: T6, human OX40 with mouse CRD1; assay: flow cytometry, transfected ExpiCHO-S cells, MFI at 5 µg/mL as % of IgG1-CD134-A4453
Method: as §1

[7] = molecular target: T7, human OX40 with mouse CRD3; assay: as above
Method: as §1

[8] = molecular target: T5, human OX40 with mouse CRD2; assay: as above
Method: as §1

| Binder | binding result [1] | binding result [2] | EC50 (read off the curve) [3] [µg/mL] | EC50 (read off the curve) [4] [µg/mL] | binding result [5] | binding result [6] | binding result [7] | binding result [8] |
| --- | --- | --- | --- | --- | --- | --- | --- | --- |
| IgG1-CD134-007-RR (antibody, non-humanized 007 variable regions; also called IgG1-CD134-007-P329R-E345R) heavy: not shown light: AQVLTQTPSPVSAAVGGTVTISCQSSESVWNNNWLAWYQQKPGQPPNLLIYEASTLASGVSSRFKGSGSGTQFTLTVSEVQSDDAATYYCQGGYYDSSPIWTFGGGTEVVVKRTVAAPSVFIFPPSDEQLKSGTASVVCLLNNFYPREAKVQWKVDNALQSGNSQESVTEQDSKDSTYSLSSTLTLSKADYEKHKVYACEVTHQGLSSPVTKSFNRGEC | no binding (tested: 50 µg/mL) | binds | ~0.04 | ~0.05 | no binding (tested: 50 µg/mL) | binds | binds |  |
| IgG1-CD134-012-RR-K409R (antibody, also called IgG1-CD134-012-P329R-E345R-K409R) heavy: QSLEESGGRLVTPGTPLTLICTVSGIDLSSGAMGWVRQAPGKGLEYIGYIYTGSGTTSYASWVNGRFTISMTSTTVDLKITSPTTEDTATYFCARDAASSYWGHFTLWGQGTLVTVSSASTKGPSVFPLAPSSKSTSGGTAALGCLVKDYFPEPVTVSWNSGALTSGVHTFPAVLQSSGLYSLSSVVTVPSSSLGTQTYICNVNHKPSNTKVDKRVEPKSCDKTHTCPPCPAPELLGGPSVFLFPPKPKDTLMISRTPEVTCVVVDVSHEDPEVKFNWYVDGVEVHNAKTKPREEQYNSTYRVVSVLTVLHQDWLNGKEYKCKVSNKALRAPIEKTISKAKGQPRRPQVYTLPPSREEMTKNQVSLTCLVKGFYPSDIAVEWESNGQPENNYKTTPPVLDSDGSFFLYSRLTVDKSRWQQGNVFSCSVMHEALHNHYTQKSLSLSPG light: DIVMTQTPASVEAAVGGTVTIKCQASENIYSSLAWYQQKPGQPPKLLIYRTSTLASGVPSRFKGSGSGTQFTLTISDLESDDAATYYCQSYYHNSGGGYDYGFGGGTEVVAKRTVAAPSVFIFPPSDEQLKSGTASVVCLLNNFYPREAKVQWKVDNALQSGNSQESVTEQDSKDSTYSLSSTLTLSKADYEKHKVYACEVTHQGLSSPVTKSFNRGEC | no binding (tested: 50 µg/mL) | binds | ~0.06 | ~0.05 |  |  | binds | binds |

Source: patent publication US20240400703A1 (Genmab, published 2024)
